The record followed here is publication PMC10324447.

The term Kd denotes a measure of binding affinity in units of concentration.

For assay [1], the target named is VRC01 IgG1 bound to its antigen (not stated | HIV-1, strain BaL). The assay is described as follows: ITC. On the technique in general: ITC needs no label: the signal is the heat of the interaction.
For the next assay, the target named is VRC01 IgG1. The assay is described as follows: ITC.

Regarding “human FcγRIIIa-V158, soluble extracellular domain (receptor)”, the Kd in assay [1] amounted to 547 nM; with VRC01 IgG1 it was 150 nM.
